Measurements from publication PMC9075797.

These substances were tested against SARS-CoV-2 RBD tagged with a C-terminal Fc tag (SARS-CoV-2) (UniProt P0DTC2) (assay: BLI).

Substance	Kd [µM]	koff [s⁻¹]	kon [M⁻¹ s⁻¹]
(Nb1N)-(Nb2_(42)), Tet-linked heterodimer of VHH72 (Tet3.0 at the N terminus) and H11-H4 (Tet3.0 at Gly42)	0.00393	0.000593	151000
(Nb1_(42))2, Tet-linked homodimer of VHH72 with Tet3.0 at Gly42	0.0275	0.00201	73100
(Nb1_(13))2, Tet-linked homodimer of VHH72 with Tet3.0 at Gln13	0.046	0.00156	33800
(Nb1N)2, Tet-linked homodimer of VHH72 with Tet3.0 at the N terminus	0.0138	0.00119	85800
(Nb1N)3, Tet-linked homotrimer of VHH72 with Tet3.0 at the N terminus	0.00231	0.000566	246000

Each substance was assayed against SARS-CoV-2 RBD tagged with a C-terminal Fc tag (SARS-CoV-2; strain not stated, ancestral (Wuhan-Hu-1) assumed) (UniProt P0DTC2) (assay: BLI).

Substance	koff [s⁻¹]	kon [M⁻¹ s⁻¹]	Kd [µM]
Nb1-Nb1 tail-to-head genetically linked dimer of VHH72	0.00314	35400	–
Nb1-Nb1-Nb1 tail-to-head genetically linked trimer of VHH72	0.00156	57900	0.0279
(Nb1C)2, Tet-linked homodimer of VHH72 with Tet3.0 at the C terminus	0.0064	48100	0.132
